The nanobody polyreactivity screen of Harvey et al. (2022)

Assay: yeast display, Sf9 membrane polyspecificity reagent, FACS + sequencing; frameworks hold sequencing errors
Method in brief: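 Nanobodies came from a synthetic yeast display library in Saccharomyces cerevisiae BJ5465, induced with galactose for 36–48 hours and stained for 1 hour at 4 °C with 10% biotinylated, detergent-solubilized Sf9 membrane reagent. Cells were enriched on streptavidin microbeads and then FACS-sorted, with low and high (top ~1%) gates set on anti-HA fluorescence for expression and streptavidin fluorescence for reagent binding. Each polyreactivity label reflects the gate a clone came from. Genes were amplified by colony PCR, sequenced by MiSeq 2 × 250 and filtered by CDR length.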

| Sequence | polyreactivity (PSR sort gate) |
| --- | --- |
| QVQLVESGGGLVQAGGSLRLSCAASGRTFRYNAMGWYRQAPGKERDLVAAISYSGGRTNYADSVKGRFTISRDNAKNTVYLQMNSLKPEDTAVYDCATGYAVYLSRRDYWGQGTQVTVSS | high polyreactivity |
| HVQLVETGGGFVQAGVCLRLSCAASGSIFRVYVMGWYRPATVKERELVAAISHSSGGTYYADSVKWRFTISRDNAKNTVYLQMYSLKPEDTAVYYCAARSRTRRGVHLQPSSRYGSWGQGTQVTVSS | high polyreactivity |
| QVQLVESGGGLVQAGGSLRLSCAASGFTFDRNAMGWYRQATWKERELVAAITWTGGSTYYADSVKGRFTISRDNAKNTVYLQMNSLKPEDTAVYYCAATLPYSRGWFYYWGQGTQVTVSS | high polyreactivity |
| QVQLVESGGGLVQAGGSLRLSCAASGSIVVWNDMGWYRQAPGTEREFVAAITSRDGSTYYADSVKGRFTISRDNAKNTVYLQMNSLKPEDTAVYYCAARLRVTVFYSRTRYYWGQGTQVTVSS | low polyreactivity |
| LVQLVESGGGLVQAGGSLRLSCAASGSIFSVYAMGWYRQAPGKERELVAAITWRGGNTYYADSVKGRFTLSRDNAKNTVYLQMNSLKPEDTAVYYCNRVYRQRLGRDYWGQGTQVTVSS | high polyreactivity |
| QVQLVESGGGLVQAGGSLRLRCAASGFTFRLYAMGGDRQAPGKERELVATITQRGGRTYYADSVKGRFTISRDNAKNTVYLQMNSLKPEDTAVYYCAATWSLTTGTKFDYWGQGTQVTVSS | high polyreactivity |
| QVQLVESGAGLVQAGGSLRLSFAASGRTFRGYAMGLYRQGPGKEREWVAAISSGGSTYYADSVKGRFTISRDNAKNTVSLQMYSLKPEDTAVYYCARAVGNYRTLEFDYWGQGTQVTVSS | low polyreactivity |
| QVQLVESGGGLVQAGGSLRLSCAASGRTFGSYAMGWYRQAPGTERELVAAITWSGTGTYYADSVKGRFTISRDKAKNTVYLQMHSLKPEDTAVYYCNTDRWYAYDWGQGTQVTVSS | high polyreactivity |
| QVQLVESGGGLVQAGGSLRLSCAASGSTSTTYTMGWYRQAPGKERELVAAISYSGGSTYYADSVKGRFTISRDNAKHTVYLQMNSLKPEDTAVYYCAAQSFVGWREYESWGQGTQVTVSS | high polyreactivity |
| QVQLVESGGGLVQAGGSLRLSCAASGSIFYYYAMGWYRQAPGKERELVAAISSTGGSTYYADSVKGRFTISRDNAKNTVYLQMNSLKPEDTAVYYCAAYHYGSNVFYFDYWGQGTQVTVSS | low polyreactivity |
| QDQHVESGGGLVQAGGSLRLSCAASGSIFDVYTMGWYRQAPGKERELVAAINTGGGSTYYADSVKGRFTISRDKAKNTVYLQMNSLKPEDTAVYYCAASVYHYGPLYYWGQGTQVTVSS | low polyreactivity |
| QVQLVESGGGLVQAGGSLRLSCAASGRIFGFYARGWYRQAPGKEREFVADITSGGSTNYADSVKGRFTISRDNAKNTVYLQMNSLKPEDTAVYYCNALSYVWYRYPGNWDEDDYWGQGTQVTVSS | low polyreactivity |
| QVQLVESGGGLVQAGGSLRLSCAASGFIFVWYAMGWYRQAPGKERELVAAISWSGGNTYYADSVKGRFTISRDNAKNTVYLQMNSLKPEDTAVYYCNVVYFDGNPEDYDYWGQGTQVTVSS | high polyreactivity |
| QVQLVESGGGLVQAGGSLRLSCAASGNTFSNYAMGWYRQAPGKEREFVAAIRKSGASTYYADSVKGRFTISRDNAKNSVYLQMNSLKPEDTAVYYCAADGQVSFALGFDYWGQGTQVTVSS | high polyreactivity |
| QVQLVESGGGLVQAGGSLRLSCAASVSIFRVNTMGWYRQAPGKERELVATISSGARTNYADSVKGRFSISRDNAKNTVYLQMNSLKPEDTAVYYCATRYRRVYTWYDYWGQGTQVTVSS | high polyreactivity |
| QVQLVETGGGLVQAGGSLRLSCAASGGIFVTYAMGWYRQAPGKERELVAAITSGDSTYYADSVKGRFTISRDNAKNTVYLQMNSLKAEDTGVYYCAVGSTDRVSAQGSYFTYDYWGQGTQVTVSS | low polyreactivity |
| QVQLVESGGGLVQAGGRLRLSCAASGSTLSANAMGWYSPAPGKERELVAAISRRSGGTYYADSVKGRFTISRDNAKNSVYLQMNSLKPEDTAVYYCIKVLKDPHTWGWVDYDYCGQGTQVTVSS | high polyreactivity |
| QVQLVESGGGLVQAGGSLRLSCAASGLTFYVYTMGWYRQAPGKERELVAVISSGDSTYYADSVKGRFTISRDNAKNTVYLQMNSLKPEDTAVYYCAAGTHYRIVRYGLYDYWGQGTQVTVSS | low polyreactivity |
| QVQLVESGGGLVQAGGSLRLICAASGFIFYYYAMGWYRQAPGKERQVVAAITWSGGITYYADSVKGRFTISRDNAKNTVYLQMISMKPEDTAVYYCATGYEYYGYSGSRRDYWGQGTQVTVSS | low polyreactivity |
| QVQLVESGGGLVQAGGSLRLSCAASGRTLYQYAMGWYRQAPGKERELVAVITSRGGSTNYADSVKGRFTISRDNAKNTVYLQMNSLKPEDTAVYYCAVLYPKYGKRYGYWGQGSQVTVSS | high polyreactivity |
| QVQLVESGGGLVQAGGSLRLSCAASGSTLYYNAMGWFRQAPGKERELVARISRSGGSTYADSVKGRFTISRDNAKNTVYLQMNMLKRDDTAVYYCNADAYGTPEFTSYAVRYDYWGQGTQVTVSS | low polyreactivity |
| QVHLVESGGGLVQAGGSLRLSCAASGRTFCYNAMGWYRPAPGKERELVAAITSSGGGTSYADSVKGRFTISRDNAMNTVYLQMNSLKPEDTAVSYCARVRRYPLRYNYWGQGTQLTVSS | high polyreactivity |

| Sequence | polyreactivity (PSR sort gate) |
| --- | --- |
| QVQLVDSGGCLVQAGGSLRLSCAASGSTFPTYAMGWYRQAPGKERELVAAITWSGGSTYYADSVKGRFTISRDNAKNTVYLQMNSLKPEDTAVYYCADSAYVQPYDYWGQGTQVTVSS | high polyreactivity |
| QVQLVESGGGLDQAGGSLRLSCAASGIIPYYYVMGWYRQAPGKERELVAAINRSGTSTYYADSVKGRFTISRDNAKNTVYLQMNSLKPEDTAVYYCAAERYWSGGVFDYDYWGQGTQVTVSS | high polyreactivity |
| QVQLVESGGGLVQAGGSLRLSCAASGSTFDANAMGWYRQAPGKERELVAAITSNGGSTYYADSVKGRFTISRDNAKNTVYLQMNSLKPEDTAVYYCDTEQHTVQDYDYWGQGTQVTVSS | low polyreactivity |
| RVQLQESGGGLVQAGGSLRLSCAASGTIFIRGDMGWYRQAPGKEREFVATIDTGSNTYYADSEKGRFTISRDNAKNAVYLQMNCQQPGDTAVYYCVVDYQLSGRLRYWGQGTQVTLSS | low polyreactivity |
| QVQLVESGGGLVQAGGSLRLSCAASGSTFDYYTIGWYRQAPGKERELVAAISSSGGSTYYADSVKGRFTISRDNAKNTVYLQMNSLKPEDTAVYYCAADPSPYGDEYDYWGQGTQVTVSS | low polyreactivity |
| QVQLVDSGGGLVQAGGSLRLSCAASGSTFLYHAMGWYRQAPGKERELLAAINSGTSTTYADSVKGRFTISRDNAKNRVYLQMNSLNPEDTAVYYCAADYYYVNYYGYYTLFDFDYWGQGTQVTVSS | low polyreactivity |
| QVQLVESGGGLVQAGGSLRLSCAASGSIFRPYAMGWYRQAPGKERELVAAISYRGGSTYYADSVKGRFTISRDYAKNTVYLLMNRLKPEDTAVYYCAADSREEGDYWGQGTQVTVSS | low polyreactivity |
| QVQLVESGGRLVQAGGSLRLSCAASGYTIDPYDMGWYRQAPGKERELVASISWSGGDTYYADSVKGRFTISRDNAKNTVYLQMNSLKPEDTAVYYCAADPGYPANRTEWSDFDYWGQGTQVTVSS | low polyreactivity |
| QVQLVESGGRLVQAGGSLRLTCAASGITFGDYAMGWYRQAPGKERELVAGINWSGDGTYYADSVKGRFTISRDNAKNTVYLQMNSLKPEDTAVYYCAAETFYDYGGYDYWGQGTQVTVSS | low polyreactivity |
| QVQLVESGGGLVQAGGSLRLSCAASGITFYRYFMGWYRPAPGKERELVAAISRGGGSTYYADSVKGRFTISRDNAKNTVYLQMNSLKPEDTAVYYCNARYLYRHDYWGQGTQVTVSS | high polyreactivity |
| QVQLVESGGGLVQAGGSLRLSCAASGSIFWNYTMGWYRPAPGKERELVAAITWSGSSTYYADSVKGRFTISRDNAKNTVYLQMNSLKPEDTAVYYCAKDGSGTYEFDYWGQGTQVTVSS | low polyreactivity |
| QVKLVESGGGLVQAGGSLRLSCAASGNIFRRYTMGWYRQAPGKERELVAAISSGGSTNYADSEKGRFTISRDNAKNTVYLQMNSLKPEDTAVYYCAVSYRSFRYYWERYYSWGQGTQVTVSS | high polyreactivity |
| QVQLVESGGGLVQAGGSLRLSCAASGRIFWYYAMGWYRQAPGKEWELVARISSSGGSTYYADSVKGRFTISRDNAKNTVYLQMNSLKPEDTAVYYCAKERYSGSSRYPMDYWGQGTQVTVSS | high polyreactivity |
| QVQLVESGGGLVQAGGSLRLSCAASGTFYYNTMGCYRQAPGKERELVAAITSGGRTYADSVKGRFTISRDNAKNTVYLQMNSLKEEDTAVYYCAVDKPYPYRIIIWYEYDYWGQGNQVTVSS | low polyreactivity |
| QLQLVESGGGLVQAGGSLRLSCAASGHIFDANVMGWSRQAPGKERELVAAISSGGRTKYADSVKGRFTISRDNAKNTVYLQMNSLKPEDTAVYYCAKKHFPLYDYWGQGTQVTVSS | low polyreactivity |
| QVQLVESGGGLVQAGGSLRLSCAASGITFDSYAMGWYRQAPGKERELVAAISYSGGSTYYADSVKGRFTISRDNAKNTVYLQMNSLKPDDTAVYYCAAASDDDYDYWGQGTKVTVSS | low polyreactivity |
| QVQLVESGGGLVQAGGSLRLSCAASGIIFPSYAMGWYRQAPGKERELVAAINSSGGSTYYADSVKGRFTISRDNAKNTVYLQMNSLKPEDTAVYYCAAEADLQWYPYSFPYPYYYWGQGTQVTVSS | high polyreactivity |
| QVQLVESGGGLVQAGGSLRLSCAASGRIFGSYGMGWYRQAPGKEWELVAAITPSGTSTYYADSVKGRFTISRDNAKNTVYLEMNSLKPEDTAVYNCNALFYRRYAFAFGYWRQGTQVTVSS | high polyreactivity |
| QVQLVESGGGLVQAGGSLRLSCAASGRTFRWNAMGWYRPAPGKERELVAAISSGGSTYYADSVKGRFTISRDNAKNTVYLQMNSLKPEDTAVYYCNKYYVRAYDTQEYDYWGQGTQVTVSS | high polyreactivity |
| QVQLVESGGGLVHAGGSLRLSCASSGSTFFTNAMGWYRQAPGKERELVAAITINDGSTFYADSVKGRFTISRDNAKNTVYLQMNSLNPEDTAVYYCNADGVDLYDYWGQCTQVTVSS | low polyreactivity |
| QVQLVESGGGLVQAGGSLRLSCAASGSTSFTYMGWYRQAPGTEREVVAAIDESGGSTYYADSVKGRFTISRDNAKNTVYLQMNTLKPEDTAGYYCTRRYGRSYRWGNGYWGQGTQVTVSA | low polyreactivity |
